In one test the target is HLA-C*06:02. Put plainly: IEDB peptide-MHC binding, purified MHC/direct/fluorescence; filed as Kd, often an IC50 or EC50 that approximates it; ≥ and ≤ were set here for values at or beyond the usual limits of such assays.
For the next test, the target named is HLA-A*69:01. Described as above.
Test [1] deals with HLA-A*02:01. Described as above.
For test [2], the target named is HLA-A*02:01. Nature of the test: IEDB peptide-MHC binding, purified MHC/competitive/fluorescence; filed as Kd, often an IC50 or EC50 that approximates it; ≥ and ≤ were set here for values at or beyond the usual limits of such assays.
Test [3] deals with HLA-A*01:01. Described as above. To be noted: source organism: Homo sapiens.
A further test deals with HLA-A*29:02. The test is described as above.
The next test concerns the target HLA-A*11:01. Put plainly: IEDB peptide-MHC binding, purified MHC/direct/fluorescence; filed as Kd, often an IC50 or EC50 that approximates it; ≥ and ≤ were set here for values at or beyond the usual limits of such assays.
For test [4], the target named is HLA-A*03:01. The test is described as above.
The target in a further test is HLA-B*40:01. Described as above.
In the next test the target is HLA-B*08:01. Described as above.
Another test has as its target HLA-B*27:05. The description is as above.
The target in test [5] is HLA-A*68:02. Put plainly: IEDB peptide-MHC binding, purified MHC/competitive/fluorescence; filed as Kd, often an IC50 or EC50 that approximates it; ≥ and ≤ were set here for values at or beyond the usual limits of such assays. Conditions: source organism: Escherichia coli HS.
For the next test, the target named is HLA-B*15:17. Described as above.
The target in a further test is HLA-A*31:01. Put plainly: IEDB peptide-MHC binding, purified MHC/direct/fluorescence; filed as Kd, often an IC50 or EC50 that approximates it; ≥ and ≤ were set here for values at or beyond the usual limits of such assays.
The target in the next test is HLA-B*44:02. The test is described as above.
The target in test [6] is HLA-B*18:01. The test is described as above. Conditions: source organism: Escherichia coli O157:H7.
The target in a further test is HLA-B*07:02. Described as above.
Test [7] addresses HLA-A*01:01. Described as above.
Test [8] deals with HLA-B*57:01. The description is as above. To be noted: source organism: Escherichia coli O157:H7.
The next test concerns the target HLA-B*58:01. The test is described as above.
Another test deals with HLA-B*48:01. The description is as above. Conditions: source organism: Escherichia coli O157:H7.
In the next test the target is HLA-A*24:03. The description is as above. To be noted: source organism: Tick-borne encephalitis virus.
A further test has as its target HLA-B*15:01. Described as above. Conditions: source organism: Alkhumra hemorrhagic fever virus.
A further test has as its target HLA-B*35:01. The description is as above.
Test [9] concerns the target HLA-A*26:01. The description is as above.
The next test deals with HLA-A*02:19. Put plainly: IEDB peptide-MHC binding, purified MHC/competitive/fluorescence; filed as Kd, often an IC50 or EC50 that approximates it; ≥ and ≤ were set here for values at or beyond the usual limits of such assays. Conditions: source organism: Canarypox virus.
The target of a further test is HLA-B*39:01. The test is described as above.
For test [10], the target named is HLA-A*03:01. The test is described as above. To be noted: source organism: Canarypox virus.
Another test deals with HLA-B*51:01. Described as above.
A further test deals with HLA-B*27:03. The description is as above.
Test [11] addresses HLA-A*26:01. The test is described as above.
In test [12] the target is HLA-B*18:01. The test is described as above.
Test [13] deals with HLA-B*57:01. Described as above.
The target of a further test is HLA-B*46:01. Described as above.
Test [14] has as its target HLA-A*68:02. Nature of the test: IEDB peptide-MHC binding, purified MHC/direct/fluorescence; filed as Kd, often an IC50 or EC50 that approximates it; ≥ and ≤ were set here for values at or beyond the usual limits of such assays. To be noted: source organism: Limestone Canyon virus.
A further test has as its target HLA-A*02:12. Put plainly: IEDB peptide-MHC binding, purified MHC/competitive/fluorescence; filed as Kd, often an IC50 or EC50 that approximates it; ≥ and ≤ were set here for values at or beyond the usual limits of such assays. Conditions: source organism: Haemophilus influenzae.
Where [15] appears, read: source organism: Camelpox virus M-96.
Setting [16] is: source organism: Vaccinia virus Copenhagen.
[17] abbreviates: source organism: Escherichia coli O157:H7.
The mark [18] stands for this setting: source organism: Alkhumra hemorrhagic fever virus.
The mark [19] stands for this setting: source organism: Tick-borne encephalitis virus.
[20] abbreviates: source organism: Vibrio cholerae.
[21] abbreviates: source organism: Canarypox virus.
The mark [22] stands for this setting: source organism: Orthohantavirus puumalaense.

For 13 sequences, Kd results are on record in the Immune Epitope Database (IEDB).

In the case of GRYYVLQFV, the Kd (commonly a measure of binding affinity in units of concentration) with HLA-C*06:02 (source organism: Listeria monocytogenes J0161) was determined as 0.301 µM.

As for WYYDFHFFV, the results for the Kd with HLA-A*69:01 (setting [15]), with HLA-C*06:02 (source organism: Vaccinia virus WR) and with HLA-A*02:01 [1] (setting [15]) were 0.27 µM, at least 20 µM and 0.391 µM, respectively.

Turning to YLHPKDKYL, the Kd with HLA-A*02:01 [2] (setting [16]) is 0.0125 µM; with HLA-C*06:02 (setting [16]), 2.08 µM.

YFEYIEENKY: the Kd with HLA-A*01:01 [3] is 1.56 µM; with HLA-A*29:02 (source organism: Homo sapiens) it was at most 0.0001 µM.

With FRYMNSQGL, the Kd with HLA-C*06:02 (source organism: SARS-CoV1) is 0.002 µM; with HLA-A*11:01 (source organism: SARS-CoV1), at least 21.9 µM; with HLA-A*03:01 [4] (source organism: SARS-CoV1), at least 36.3 µM; in the test with HLA-B*40:01 (source organism: SARS-CoV1), at least 45.5 µM; in the test with HLA-B*08:01 (source organism: SARS-CoV1) it was 7.93 µM; with HLA-B*27:05 (source organism: SARS-CoV1) it was 0.0513 µM.

With GEIFGLLGP, the Kd was 2.64 µM in the test with HLA-A*68:02 [5]; 1.12 µM with HLA-B*15:17 (source organism: Escherichia coli HS); at least 20 µM in the test with HLA-A*69:01 (setting [17]); at least 20 µM with HLA-A*31:01 (setting [17]); at least 20 µM in the test with HLA-A*02:01 [1] (setting [17]); at least 20 µM in the test with HLA-B*44:02 (setting [17]). In addition, the Kd with HLA-A*11:01 (setting [17]) is at least 20 µM; in the test with HLA-B*18:01 [6], 0.101 µM; with HLA-B*07:02 (setting [17]) it was at least 20 µM; with HLA-A*01:01 [7] (setting [17]) it was at least 20 µM; with HLA-B*57:01 [8], at least 20 µM; in the test with HLA-B*40:01 (setting [17]), 0.019 µM. The Kd with HLA-B*58:01 (setting [17]), in the test with HLA-B*27:05 (setting [17]) and in the test with HLA-B*48:01 was at least 20 µM each time.

WPWNAREDV: the Kd with HLA-A*24:03 was 5.29 µM; in the test with HLA-A*31:01 (setting [18]), at least 20 µM; in the test with HLA-B*15:01 it was at least 20 µM; in the test with HLA-A*02:01 [1] (setting [18]) it was at least 20 µM; with HLA-B*44:02 (setting [18]), at least 20 µM; with HLA-A*03:01 [4] (setting [18]), at least 20 µM. Also, the Kd with HLA-B*35:01 (setting [19]) is 0.103 µM; with HLA-A*26:01 [9] (setting [18]), at least 20 µM; in the test with HLA-B*07:02 (setting [19]), 0.466 µM; with HLA-A*01:01 [7] (setting [18]), at least 20 µM; in the test with HLA-B*40:01 (setting [18]), at least 20 µM; with HLA-B*08:01 (setting [19]) it was 7.65 µM. In addition, the Kd in the test with HLA-B*58:01 (setting [18]) and with HLA-B*27:05 (setting [18]) was at least 20 µM in each case.

As to KEDPGDHIF, the Kd with HLA-A*69:01 (setting [20]), with HLA-A*31:01 (setting [20]), with HLA-A*02:01 [1] (setting [20]), with HLA-B*44:02 (setting [20]), with HLA-A*11:01 (setting [20]) and in the test with HLA-A*03:01 [4] (setting [20]) was at least 20 µM throughout. For the same sequence, the Kd was 0.224 µM in the test with HLA-B*35:01 (setting [20]); at least 20 µM with HLA-A*26:01 [9] (setting [20]); at least 20 µM with HLA-B*07:02 (setting [20]); at least 20 µM with HLA-A*01:01 [7] (setting [20]); 0.0249 µM with HLA-B*40:01 (setting [20]); at least 20 µM with HLA-B*08:01 (setting [20]). Also, the Kd with HLA-B*58:01 (setting [20]) and with HLA-B*27:05 (setting [20]) was at least 20 µM each time.

As to YMMDGNECP, the Kd with HLA-A*02:19 is 0.2 µM; with HLA-B*39:01 (setting [21]) it was at least 20 µM; with HLA-A*02:01 [2] (setting [21]), 0.247 µM; with HLA-A*03:01 [10] it was at least 20 µM; with HLA-B*51:01 (setting [21]), at least 20 µM; with HLA-B*15:17 (setting [21]), at least 20 µM. Also, the Kd with HLA-B*27:03 (setting [21]), in the test with HLA-A*26:01 [11] (setting [21]), with HLA-B*18:01 [12] (setting [21]), with HLA-B*57:01 [13] (setting [21]), with HLA-A*29:02 (setting [21]) and in the test with HLA-B*46:01 (setting [21]) was at least 20 µM each time.

Sequence FGMPNPEGY displayed a Kd with HLA-A*29:02 (source organism: Desulfuromonas acetoxidans DSM 684) of 0.0231 µM.

In the test with HLA-C*06:02 (source organism: Mycobacterium tuberculosis str. Haarlem), YLNDFAQLL returned a Kd of 0.025 µM.

Regarding IILKALYML, the Kd with HLA-B*39:01 (setting [22]), with HLA-B*51:01 (setting [22]), with HLA-B*27:03 (setting [22]), with HLA-A*26:01 [11] (setting [22]), with HLA-B*18:01 [12] (setting [22]) and with HLA-B*57:01 [13] (setting [22]) was at least 20 µM throughout. Also, the dissociation constant (Kd) is at least 20 µM in the test with HLA-B*46:01 (setting [22]), 0.0074 µM with HLA-A*02:01 [1] (setting [22]), at least 20 µM with HLA-A*68:02 [14] and at least 20 µM with HLA-A*03:01 [4] (source organism: Limestone Canyon virus).

HLGGFVHAC displayed a Kd in the test with HLA-A*02:12 of 0.0268 µM.
